{
  "source": "paper PMC2776984",
  "about": "(PLoS Genetics, 2009)",
  "molecules": {"B1": {"name": "BMPR1Becd (soluble ectodomain of rhBMPR1B) (receptor, human, UniProt O00238 14-126, looked up)", "chain": "KKEDGESTAPTPRPKVLRCKCHHHCPEDSVNNICSTDGYCFTMIEEDDSGLPVVTSGCLGLEGSDFQCRDTPIPHQRRSIECCTERNECNKDLHPTLPPLKNRDFVDGPIHHR", "notes": "BMPR1B, BMP type I receptor, human (rh), extracellular domain; also called BMPR1B ectodomain"}, "B2": {"name": "rhGDF5 (recombinant human Growth & Differentiation Factor 5) (ligand)", "chain": "RQGKRPSKNLKARCSRKALHVNFKDMGWDDWIIAPLEYEAFHCEGLCEFPLRSHLEPTNHAVIQTLMNSMDPESTPPTCCVPTRLSPISILFIDSANNVVYKQYEDMVVESCGCR", "notes": "GDF5 (CDMP1), human, recombinant; also called CDMP1; wild-type GDF5; source: bought/supplied: Biopharm GmbH"}},
  "test_in_all_cases": "SPR; BIA2000 system (Biacore); receptor ectodomains immobilised, GDF5 proteins as analyte; apparent KD; n = 6; as described in ref. 16",
  "key": {"[1]": {"biological_target": "BMPR1Aecd (soluble ectodomain of rhBMPR1A) (human) (UniProt P36894)", "sequence (P36894 24-152)": "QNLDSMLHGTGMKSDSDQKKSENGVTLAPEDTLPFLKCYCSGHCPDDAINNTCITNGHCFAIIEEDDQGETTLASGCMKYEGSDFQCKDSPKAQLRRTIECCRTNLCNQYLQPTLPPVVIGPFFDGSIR"}, "[2]": {"biological_target": "BMPR1Becd (soluble ectodomain of rhBMPR1B) (human) (UniProt O00238)"}, "[3]": {"biological_target": "B2", "conditions": "both partners purified"}, "[4]": {"biological_target": "T1, BMPR1Aecd (soluble ectodomain of rhBMPR1A) (human, UniProt P36894 24-152)", "T1 construct": "BMPR1A, BMP type I receptor, human (rh), extracellular domain; also called BMPR1A ectodomain", "T1 sequence (P36894 24-152)": "as above", "conditions": "both partners purified"}},
  "data": [
    {"molecule": "rhN445T GDF5 (from UniProt P43026 28-501) (ligand)", "values": [
      {"measurement": "Kd", "setting": "[1]", "value": 19.5, "unit": "nM"},
      {"measurement": "Kd", "setting": "[2]", "value": 1.2, "unit": "nM"}
    ]},
    {"molecule": "B1", "values": [
      {"measurement": "Kd", "setting": "[3]", "value": "1.1 ± 0.2", "unit": "nM"}
    ]},
    {"molecule": "B2", "values": [
      {"measurement": "Kd", "setting": "[4]", "value": "17 ± 4.6", "unit": "nM"}
    ]}
  ]
}
